Values belong to the substance of their own block, whether it stands above or below them.
Columns and labels:
K18 fibril seeds (human) [1] = molecular target: K18 fibril seeds (human) (UniProt P10636)
[2] = molecular target: AD tau filaments (in AD brain homogenate) (human (endogenous in AD brain tissue))
K18 fibril seeds (human) [3] = molecular target: K18 fibril seeds (human) (UniProt P10636); remark: listed apart in the source
htau40 seeds (human) = htau40 seeds (human) (UniProt P10636)
[4] = molecular target: Atto633-labeled 4R MAP2 monomer (UniProt P11137); assay: fluorescence polarisation; fluorescence anisotropy; 100 nM Atto633-labeled monomer titrated with K18 seeds (0–20 μM monomer equivalents), equilibrated 16 h at 22 °C; one-site binding model; apparent KD, based on monomer equivalents of seeds, not seed concentrations
[5] = molecular target: Atto633-labeled K18 monomer (human) (UniProt P10636); assay: as above
[6] = molecular target: Atto633-labeled 3R MAP2 monomer (UniProt P11137); assay: as above

4R MAP2, sequence (P11137 other isoform, or with tags, fused parts or gaps): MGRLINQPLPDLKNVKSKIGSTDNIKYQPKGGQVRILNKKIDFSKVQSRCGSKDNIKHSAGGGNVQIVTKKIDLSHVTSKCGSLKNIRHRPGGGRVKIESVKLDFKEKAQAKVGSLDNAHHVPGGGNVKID
K18 fibril seeds (human), sequence (P10636 561-689): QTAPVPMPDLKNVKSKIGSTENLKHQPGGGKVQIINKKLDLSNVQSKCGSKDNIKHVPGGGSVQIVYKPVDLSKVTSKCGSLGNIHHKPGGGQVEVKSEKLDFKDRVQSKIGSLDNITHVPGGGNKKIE
K18 fibril seeds, sequence (P10636 561-689): as above
htau40 seeds (human), sequence (P10636 other isoform, or with tags, fused parts or gaps): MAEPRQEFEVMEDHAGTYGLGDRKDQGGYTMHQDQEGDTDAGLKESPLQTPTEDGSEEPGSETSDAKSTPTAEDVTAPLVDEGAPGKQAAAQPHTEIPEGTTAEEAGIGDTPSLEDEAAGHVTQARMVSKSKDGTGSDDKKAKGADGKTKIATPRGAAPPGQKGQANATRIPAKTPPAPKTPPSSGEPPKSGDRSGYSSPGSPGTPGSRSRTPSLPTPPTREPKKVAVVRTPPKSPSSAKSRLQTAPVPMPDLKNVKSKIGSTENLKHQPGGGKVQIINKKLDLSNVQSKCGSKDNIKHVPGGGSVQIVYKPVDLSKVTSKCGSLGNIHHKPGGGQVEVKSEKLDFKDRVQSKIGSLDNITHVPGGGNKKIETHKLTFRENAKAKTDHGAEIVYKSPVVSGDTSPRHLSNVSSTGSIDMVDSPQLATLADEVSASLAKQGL

percent of HEK293 cells expressing htau40P301S-EYFP that contain tau puncta 24 h after transduction of K18 seeds preincubated with 3R MAP2 (25% without MAP2) (K18 fibril seeds (human) [1]): 11 % of cells | amplification of tau fibrils from AD brain homogenate (5 μM htau40 monomer, cycles of shaking and growth for 30 h; sedimentation, SDS-PAGE, densitometry) with 5 μM 3R MAP2 [2]: > 80 % reduction | IC50 of inhibition of K18-seeded aggregation of 10 μM K18 monomers (10% seeds, 6 h, 37 °C; sedimentation, SDS-PAGE, Coomassie; 12.5 nM-25 μM 3R MAP2); blocks recruitment of K18 monomers onto K18 seeds (K18 fibril seeds (human) [3]): 2200 nM | tau fibril growth (10 μM htau40 monomers on 1% htau40 seeds, 21 h, 37 °C; sedimentation, SDS-PAGE) with 10 μM 3R MAP2, relative to the reaction without MAP2 set to 100% (% of growth without MAP2) (htau40 seeds (human)): 56
Substance: 3R MAP2 (from UniProt P11137-4 362-490) (domain or fragment)

percent of HEK293 cells expressing htau40P301S-EYFP that contain tau puncta 24 h after transduction of K18 seeds preincubated with 4R MAP2 (25% without MAP2) (K18 fibril seeds (human) [1]): 6.4 % of cells | amplification of tau fibrils from AD brain homogenate (5 μM htau40 monomer, cycles of shaking and growth for 30 h; sedimentation, SDS-PAGE, densitometry) with 5 μM 4R MAP2 [2]: > 80 % reduction | IC50 of inhibition of K18-seeded aggregation of 10 μM K18 monomers (10% seeds, 6 h, 37 °C; sedimentation, SDS-PAGE, Coomassie; 12.5 nM-15 μM 4R MAP2); blocks recruitment of K18 monomers onto K18 seeds (K18 fibril seeds (human) [3]): 1100 nM | tau fibril growth (10 μM htau40 monomers on 1% htau40 seeds, 21 h, 37 °C; sedimentation, SDS-PAGE) with 10 μM 4R MAP2, relative to the reaction without MAP2 set to 100% (% of growth without MAP2) (htau40 seeds (human)): 25
Substance: 4R MAP2 (from UniProt P11137-4 362-490) (domain or fragment)

Kd [4]: 1300 nM | Kd [5]: 5400 nM | Kd [6]: 1600 nM
Substance: K18 fibril seeds (from UniProt P10636-8 244-372)
